Legend:
[1] = biological target: hPolεCD (E. coli), catalytic domain of DNA polymerase ε p261, CysX [4Fe-4S] cluster (63% iron) (human, UniProt Q07864 28-1194); assay: BLI; 100 mM NaCl; active enzyme concentration; kon 252 mM-1 s-1, koff 41.9e-3 s-1; EMSA: 20 mM Tris-Hepes pH 7.8, 100 mM NaCl, 2% glycerol, 2 mM TCEP, 0.2 mg/mL BSA, 0.5 uM DNA, 5 min room temperature; BLI: 30 mM Tris-Hepes pH 7.8, 100 or 150; conditions: protein: recombinant; tags: N-terminal His-Sumo, His-tag digested during purification; label: 5'-biotin-TEG on template (strand 1); template 5' overhang 9 nt, 3' overhang 3 nt; primer annealed at 2-fold excess
Chain of hPolεCD (E. coli), catalytic domain of DNA polymerase ε p261, CysX [4Fe-4S] cluster (63% iron) (Q07864 28-1194): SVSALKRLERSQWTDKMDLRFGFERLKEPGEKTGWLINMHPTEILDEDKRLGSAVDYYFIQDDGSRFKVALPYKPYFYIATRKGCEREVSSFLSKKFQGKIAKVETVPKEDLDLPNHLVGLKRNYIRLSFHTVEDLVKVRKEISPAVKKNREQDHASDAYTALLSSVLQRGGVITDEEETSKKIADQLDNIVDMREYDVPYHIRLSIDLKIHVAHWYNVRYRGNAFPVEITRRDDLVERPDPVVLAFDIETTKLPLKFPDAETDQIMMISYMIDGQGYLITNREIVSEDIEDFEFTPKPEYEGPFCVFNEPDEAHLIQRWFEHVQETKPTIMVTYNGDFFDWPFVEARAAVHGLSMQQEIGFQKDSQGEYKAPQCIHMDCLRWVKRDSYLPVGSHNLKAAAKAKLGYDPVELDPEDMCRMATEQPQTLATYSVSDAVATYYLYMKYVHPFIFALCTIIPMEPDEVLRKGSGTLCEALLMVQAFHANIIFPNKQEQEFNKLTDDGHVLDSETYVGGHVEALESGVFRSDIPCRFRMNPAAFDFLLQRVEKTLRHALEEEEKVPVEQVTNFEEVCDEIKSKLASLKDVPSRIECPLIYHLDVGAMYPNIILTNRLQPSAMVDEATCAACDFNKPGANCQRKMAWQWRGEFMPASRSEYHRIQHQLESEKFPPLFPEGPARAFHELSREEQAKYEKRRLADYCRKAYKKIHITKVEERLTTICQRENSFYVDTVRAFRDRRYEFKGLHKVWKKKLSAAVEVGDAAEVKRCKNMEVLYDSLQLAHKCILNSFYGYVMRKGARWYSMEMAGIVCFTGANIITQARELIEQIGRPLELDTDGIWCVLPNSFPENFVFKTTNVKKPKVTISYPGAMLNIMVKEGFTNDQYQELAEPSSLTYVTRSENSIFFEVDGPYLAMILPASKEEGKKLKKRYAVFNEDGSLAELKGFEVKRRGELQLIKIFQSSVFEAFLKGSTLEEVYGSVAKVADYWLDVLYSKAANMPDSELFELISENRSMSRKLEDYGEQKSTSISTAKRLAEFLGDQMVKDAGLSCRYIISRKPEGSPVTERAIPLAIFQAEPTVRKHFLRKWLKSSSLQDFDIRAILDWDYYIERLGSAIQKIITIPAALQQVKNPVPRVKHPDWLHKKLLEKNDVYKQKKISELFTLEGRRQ

[2] = biological target: hPolεCD (insect), catalytic domain of DNA polymerase ε p261, iron-poor (7.3% iron) (human, UniProt Q07864 28-1194); assay: BLI; 100 mM NaCl; active enzyme concentration; kon 162 mM-1 s-1, koff 34.2e-3 s-1; EMSA: 20 mM Tris-Hepes pH 7.8, 100 mM NaCl, 2% glycerol, 2 mM TCEP, 0.2 mg/mL BSA, 0.5 uM DNA, 5 min room temperature; BLI: 30 mM Tris-Hepes pH 7.8, 100 or 150; conditions: protein: recombinant; tags: cleavable N-terminal His-Tev, digested during purification; label: 5'-biotin-TEG on template (strand 1); template 5' overhang 9 nt, 3' overhang 3 nt; primer annealed at 2-fold excess
Chain of hPolεCD (insect), catalytic domain of DNA polymerase ε p261, iron-poor (7.3% iron) (Q07864 28-1194): as above

[3] = biological target: hPolεCDM (C654S/C663S), [4Fe-4S]-deficient (human, UniProt Q07864 28-1194, C654S;C663S); assay: EMSA; no mobility effect at 4-fold molar excess over DNA; EMSA: 20 mM Tris-Hepes pH 7.8, 100 mM NaCl, 2% glycerol, 2 mM TCEP, 0.2 mg/mL BSA, 0.5 uM DNA, 5 min room temperature; BLI: 30 mM Tris-Hepes pH 7.8, 100 or 150; conditions: protein: recombinant; tags: N-terminal His-Sumo, His-tag digested during purification; label: 5'-Cy3; single strand
Chain of hPolεCDM (C654S/C663S), [4Fe-4S]-deficient (Q07864 28-1194 C654S/C663S): as the sequence (Q07864 28-1194) above, with C627S, C636S counted along it

Binder	Kd [1]	Kd [2]	binding result [3]
Octet 23-mer template / 11-mer 3'-ddC primer (dsDNA, 3'-dideoxycytidine on primer (strand 2)) DNA 1: AATACATAAGCGCTCCAGGCAAT DNA 2: GCCTGGAGCGC	167 ± 24 nM	213 ± 43 nM	
GGACTCCGAGCTGCC (ssDNA) [15-mer Cy3 primer alone]			no binding

— PMC9581978, “The iron-sulfur cluster is essential for DNA binding by human DNA polymerase ε”
